Measured values published in the supplement of paper PMC9170038.

Experiments:
[1] = system: MS2 coat protein; assay: apparent KD of MS2 coat protein; designed switch direction (-1 OFF switch, 1 ON switch): 1; higher = weaker reporter binding; settings: Eterna round: R98
Procedure: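 RNA-MaP: designed FMN/MS2 RNA switches (84 nt design region) are transcribed on-chip within common flanks and titrated with SNAP-549-labelled MS2 coat protein (about 1-3000 nM) in 100 mM Tris pH 7.5, 80 mM KCl, 4 mM MgCl2, without or with 200 uM FMN. Median apparent KD per design; activation ratio = KD,OFF / KD,ON.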

[2] = system: MS2 coat protein; assay: apparent KD of MS2 coat protein, switch ON state; designed switch direction (-1 OFF switch, 1 ON switch): 1; higher = weaker reporter binding; settings: FMN input: 0 or 200 uM; Eterna round: R93 (includes R88 designs)
Outline: (§1)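 Titrations with SNAP-549-labelled MS2 coat protein ran in twofold steps from 0.7 or 1.5 nM to 3 µM, each step taking 0.8–1.5 h at the start and 10–20 min toward the end. The targets were designed RNA switches transcribed on-chip from Illumina sequencing clusters, held in 100 mM Tris-HCl pH 7.5, 80 mM KCl, 4 mM MgCl2, without or with constant ligand. Apparent KD was taken per design as the median of normalised cluster binding-curve fits.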

[3] = system: MS2 coat protein; assay: apparent KD of MS2 coat protein, switch OFF state (with FMN for OFF switches, without FMN for ON switches); designed switch direction (-1 OFF switch, 1 ON switch): 1; higher = weaker reporter binding; settings: FMN input: 0 or 200 uM; Eterna round: R93 (includes R88 designs)
Outline: as §1

Sequence | apparent KD of MS2 coat protein ([1]; input ligand: FMN 200 uM) | apparent KD of MS2 coat protein ([1]; input ligand: none) | apparent KD of MS2 coat protein [2] | apparent KD of MS2 coat protein [3]
AAAUAAAAUAUAGGAUAUGGAAACAUGAGGAUCACCCAUGUAAAAUAAAAUAAAUAAUAAUAUAACCAGAAGGAUAAAAUAAAA [LRO001_SS NG 2] | 40.2 nM | 30.6 nM | – | –
AAUAAUCAGGUAGGAUAUGCUCAGGAUAACUGAGCAGAAGGACUAGAAACCUGAGGAUCACCCAGGUAACUGGAAUAAUAAUAA [Same State NG1 - A3C, U17G Submission 6B] | 57.4 nM | 121 nM | – | –
AAUAGUGGCGUAGGAUAUCUGCGUACAUGAGGAUCACCCAUGUCUCCCAGCUGCUGAGCUGGGACAGAGAAGGGCGACCGCAUA [Digece] | 76.4 nM | 226 nM | – | –
ACCAAUGGGUGAGGAUAUGCACAGGAUCACCGUGUAGAAGGCAUCAGGUAGAAGGUGCAGAGGAUCACCCUGUAAGGAUAUAUC [pwkr2 ssNG1 DX.14] | 885 nM | 563 nM | – | –
AGGUAGGUCACAGGAUAUCCCGUGAGCUACAUGAGGAUCACCCAUGUAUCACGACGAAAGAAGAAGGAGAAGGGUGACCCUGAU [Atqula] | 28.3 nM | 186 nM | – | –
AGUUACAAACUCAACAUGAGGAUCACCCAUGUACUCUCAUGUAAGGAUAUACAUUCGUAUAGAAAGUAGAAGGUACUAAUUAUG [JR_SSNG3_Sub90] | 485 nM | 659 nM | – | –
AUGGGUUAAGGAGGAUAUAGAGGGAGGAGUAAACAUGAGGAUCACCCAUGUAUUUAAUUAGUUUACUAGAAGGCUUGUGAUUGU [1.8082e+07] | 52.7 nM | 33.9 nM | – | –
AUUAACGGAGCUACAUGAGGAUCACCCAUGUACGGGUGAUCCUAGGAUAUGCCCGCAACUGUGUCGCAGAAGGAGGGUUGCCCA [Soterixe] | 37.6 nM | 25.6 nM | – | –
CACGUCCUCACAGGAUAUGCUGGACUUUGUCCAGCAGAAGGGUGACAUGAGGAUCACCCAUGUUAAAGGACGUGUAUAUUUAAU [Denovo 24] | 126 nM | 652 nM | – | –
CACUCCCGGUGAGGAUAUGCACAGGAUCACCGUGUAGAAGGCAUCAGGUAGAAGGUGCAGAGGAUCACCCUGUAAGGAUAUAUC [pwkr2 ssNG1 DX.12] | 94.5 nM | 300 nM | – | –
CAGGCUGCCAGAGGAUAAUGGACAUGAGGAUCACCCAUGUGUCAGGAUAUGGGUUUCACAUGGACUCAGAAGGGACCAGCUCGA [Raraator] | 33.8 nM | 131 nM | – | –
CGGAAUUGUACAGGAUAUGAGGGUGCCUGAGCCUCAGAAGGGUAGACCGACAUGAGGAUCACCCAUGUAUGCGGAUAACGUCCG [Sobela] | 1660 nM | 224 nM | – | –
CGUUGUUCCGCAGGAUAUGUAUUGGAUUACAAUACAGAAGGGCGAUAACAUGAGGAUCACCCAUGUGUGGACAAUGAGGAAGAG [SameState #38 NG1] | 54.9 nM | 789 nM | – | –
GCGCGCGGUUGAGGAUAUUUGCGUGCGGAUCGCCCGCGCACAUGAGGAUCACCCAUGUACGAGUAGGAGAAGGUGGCCCGUGUG [Same StateNG2] | 178 nM | 236 nM | – | –
GCUUGCGACGCAGGAUAUGGGUGCCUAAACACGAGGAUCACCCGUGUAAAGGAAGCGAAAAGCUCUCAGAAGGGCGUCGCAGGC [United States 7 - Jieux - Same State NG 2] | 17.2 nM | 19.2 nM | – | –
GGAAAACAUGAGGAUCACCCAUGUGAAAACGUGGGAGGAUAUCGAUGGAAACCAUACUGUCGAGAAGGCCCAUGUC [EteRNA is fun!] | – | – | 18.5 nM | 47.2 nM
GGAGACCACACAGGAUAUGCUGGACUUUGUCCAGCAGAAGGGUGUUUAACAUGAGGAUCACCCAUGUAGGUCUCCAAAUUUAAU [Denovo 59] | 17.7 nM | 60.5 nM | – | –
GGAGUACAUGAGGAUCACCCAUGUUGGAACAAAGUAGGAUAUGUACAAUAUUAAAUAAAAACAGAAGGACUAAGAA [Gold Rush] | – | – | 23.3 nM | 37.1 nM
GGCCAACAUGAGGAUCACCCAUGUCGCCAAAAUCGAGGAUAUGGGUGCCAGCUCGGGCAGCCAGAAGGCGACAAAA [Qutiqumais] | – | – | 55.1 nM | 224 nM
GGCGACGGUGUAGGAUAUGUGGGUUUCAAAGGGAUAGAAGGAUAGUUGGGAAUUAGGACAAGCAAACAUGAGGAUCACCCAUGU [Same STate NG 1] | 34.8 nM | 44 nM | – | –
GGCUAACGGGCUAACAUGAGGAUCACCCAUGUGGACUCAUGGUAGGAUAUGCUGUACUUUGUACAGCAGAAGGGCCGGUGAGCC [Mat - Same State NG 3 - JL Mod - D9] | 283 nM | 726 nM | – | –

Sequence | apparent KD of MS2 coat protein ([1]; input ligand: FMN 200 uM) | apparent KD of MS2 coat protein ([1]; input ligand: none) | apparent KD of MS2 coat protein [2] | apparent KD of MS2 coat protein [3]
GGGAAGAAGAGAGAGGAUAUCCAAAGGAAAACAUGAGGAUCACCCAUGUAAAAGGUAGGAAAUUGGGAGAAGGCUCAAAAGAGGG [salish99-ss2-032] | – | – | 29 nM | 39.4 nM
GGGACCAGCGUCAAGGAUAUUCAUAUAUAAACAUGAGGAUCACCCAUGUAGGCCAGGAGGCCUUGGGAGAAGGUGAGUUGGCUCG [Xegedibe] | – | – | 40.5 nM | 249 nM
GGGAGGAAGAGAGAGGAUAUCCAAAGGAAAACAUGAGGAUCACCCAUGUAAAAGGUAGGAAAUUGGGAGAAGGCUCAAGAGAAAG [salish99-ss2-054] | – | – | 29.8 nM | 51.6 nM
GGGAGGAAGAGAGAGGAUAUCCAAAGGAAAACAUGAGGAUCACCCAUGUAAAAGGUAGGAAAUUGGGAGAAGGCUCAAGAGAGGG [salish99-ss2-051] | – | – | 23.6 nM | 28 nM
GGUACAUCUAGUUAGGAUAUCAGGUGUAAGACAUGAGGAUCACCCAUGUCCUAAGAACAGGUAACUGAGAAGGAACAGGGAGUCC [JR_SS002_Sub416] | – | – | 64.6 nM | 133 nM
GUAUAUAUAAGACAGGAUAUCCUAAAGUAAACAUGAGGAUCACCCAUGUAAAGAAAGAAACUCAUGGAGAAGGGUCAAUAUAUAC [Mat - Same State 2 - Tesla mod - D82] | – | – | 11.5 nM | 27.1 nM
GUCCCAGUCACAGGAUAUGGCUCCGUAACGGAACCAGAAGGGUGAUAUUCAGAAAACACACAUGAGGAUCACCCAUGUAAUAAA [Tiorbiti] | 164 nM | 469 nM | – | –
GUGUAUAGAAUCGAGGAUAUCCUGUAAUGCACAUGAGGAUCACCCAUGUAAGAGCGAGAAUAAUGGGAGAAGGCGAGUUAUCGGU [JR_SS002_Sub1710] | – | – | 27.5 nM | 46.1 nM
UAAAAACAUGAGGAUCACCCAUGUGAGAACAUGGGAGGAUAUACAAAGACGAAAGUCAAAGUAGAAGGCCUAAAAU [Mat - Same State 1 - Mod - D170] | – | – | 75.1 nM | 15.9 nM
UAAAAACAUGAGGAUCACCCAUGUGAGAACAUGGGAGGAUAUACGAAGACGAAAGUCGAAGUAGAAGGCCUAAAAU [Mat - Same State 1 - Mod - D172] | – | – | 145 nM | 39.3 nM
UAAUUAUGGUGAGGAUAUGCACAGGAUCACCGUGUAGAAGGCAUCAGGUAGAAGGUGCAGAGGAUCACCCUGUAAGGAUAUAUC [pwkr2 ssNG1 DX.18] | 102 nM | 722 nM | – | –
UAUAAACAUGAGGAUCACCCAUGUAGAAAUAUGGGAGGAUAUACAAAGACGAAAGUCAAAGUAGAAGGCCUAAUAA [Mat - Same State 1 - Mod - D156] | – | – | 16.6 nM | 89.4 nM
UAUAGACAUGAGGAUCACCCAUGUAGAAUUAUGGGAGGAUAUACAAAGACGAGAGUCAGAGUAGAAGGCCUAGGAA [salish99-ss1-152] | – | – | 24 nM | 55.7 nM
UCCUUACAUGAGGAUCACCCAUGUCGCAGGAAUCAAGGAUAUGGGUCCGCAAUGCGGAAACCAGAAGGUGACAAAA [Edusquanon] | – | – | 165 nM | 489 nM
UGAAAACAUGAGGAUCACCCAUGUAGAAAUAUGGGAGGAUAUACGAAGACGAAAGUCAAAGUAGAAGGCCUAAAUG [Mat - Same State 1 - Eli mod - D110] | – | – | 27.6 nM | 72.1 nM
UGAAGACAUGAGGAUCACCCAUGUGGGAUUAUGGGAGGAUAUACAAAGACGAGAGUCAGAGUAGAAGGCCUAGGAG [salish99-ss1-118(!)] | – | – | 39.5 nM | 67.9 nM
UGAAGACAUGAGGAUCACCCAUGUGGGAUUAUGGGAGGAUAUACAAAGACGAGAGUCAGAGUAGAAGGCCUAGGAU [salish99-ss1-117(!)] | – | – | 31.4 nM | 57.9 nM
UGGAAACAUGAGGAUCACCCAUGUAAAAGGUGGUCAGGAUAUGCGAAAAGAAAAAGAAAAGUAGAAGGGACAAGAA [Mod of Eli's Mod] | – | – | 65.9 nM | 67.8 nM
UGGAGACAUGAGGAUCACCCAUGUGAGAAGAGGCGAGGAUAUCGAAAGAAAGAAGAGAAACGAGAAGGCGCGAGUG [salish99-SS1-042] | – | – | 40.3 nM | 46.9 nM
UUACAGCACAGGUAGGAUAUGUAGGGUGGUACAUGAGGAUCACCCAUGUAUCCACCCUUCGAAAGGCAGAAGGGCCUGUCGCUGC [Arsora] | – | – | 24.6 nM | 16.8 nM
